This data set in a line: yeast display, Sf9 membrane polyspecificity reagent, FACS + sequencing; frameworks hold sequencing errors. In a few lines:
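A synthetic nanobody library was expressed on Saccharomyces cerevisiae BJ5465 by galactose induction for 36–48 hours. The library was stained for 1 hour at 4 °C with 10% biotinylated, detergent-solubilized Sf9 membrane reagent and enriched with streptavidin microbeads before FACS. Low and high (top ~1%) gates were set on anti-HA fluorescence for expression and streptavidin fluorescence for reagent binding, and each polyreactivity label reflects the gate of origin.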
“QVQLVESGGGLVQAGGSLRLSCAASGRIFARYAMGWYRQAPGKQRELVAAITVSGDNTYYADSVKGRFTISRDNAKNTVYLQMNSLKPEDTAVYYCAVRAVLLFGFFDYDYWGQGTQLTVSS”: the “polyreactivity (PSR sort gate)” value is given as “low polyreactivity”.

With “QVQLVESGGGLVQAGGSLRLSCAASGRIFARYTMGWYRQAPGKEREFVAGIRSSGGRTYYADSVKGRFTISRDNAKNTVYLQMNSLKPEDTAVYYCKAGGSWYFARYDYWGQGTLVTVSS”, the “polyreactivity (PSR sort gate)” value is “low polyreactivity”.

For the sequence “QVQLVESGGGLVQAGGSLRLSCAASGRIFASYAMGWYRQAPGKERELVASISKSVGRTYYSDSVKGRFTISRDNAKNTVYLQMNSLKPEDTAVYDCAAISYFPLRTRYERWFYYWGQGTQVTVSS”, the “polyreactivity (PSR sort gate)” value is on record as “high polyreactivity”.

As for “QVQLVESGGGLVQAGGSLRLSCAASGRIFATNGMGWYRQATGKERELVATSTRSAGRTYYADSVKGRFTISRDNAKNTVYLQMNSLKPEDTAVYYCAADGYSTAVDDTVRYIVEYEYWGQGTQVTVSS”, the “polyreactivity (PSR sort gate)” value is listed as “low polyreactivity”.

As to “QVQLVESGGGLVQAGGSLRLSCAASGRIFATYAMGWSRQAPGKERELVAAISDGGGITYYADSVKGRFTISRDNAKNTVYLQMNSLKPDDTAVYYCARTYARYNFGYWGQGTQVTVSS”, the “polyreactivity (PSR sort gate)” value is “low polyreactivity”.

Take “QVQLVESGGGLVQAGGSLRLSCAASGRIFAVYAMGWYRQAPGKEREFVAAISYSGGITYYADSVKGRFTISRDTAKNTVYLQMNSLKPEDTAVYYCNAYYYFWGQGTQVTVSS”: the “polyreactivity (PSR sort gate)” value is listed as “low polyreactivity”.

Regarding “QVQLVESGGGLVQAGGSLRLSCAASGRIFAVYAMGWYRQAPGKERELVAAINWNDGSTYYADSVKGRFTISRDNAKNTVYLQMNSLKPEDTAVYYCAARALSRSVYGKSGYKYGYWGQGTQVTVSS”, the “polyreactivity (PSR sort gate)” value was “high polyreactivity”.

Consider “QVQLVESGGGLVQAGGSLRLSCAASGRIFAWYAMGWYRQAPGKEREFVAASTYRAARTYYADSVKGRFTISRDNAKNTVYLQMNSLNPEDTAVYYCNRQFGRRVYISHPGPGYWGQGTQVTVSS”, for which the “polyreactivity (PSR sort gate)” value is “high polyreactivity”.

Take “QVQLVESGGGLVQAGGSLRLSCAASGRIFAWYTMVWYRQAPGKERELVATISSSGGSTYYADSVKGLFTISRDNAKNTVYLQMNSLKPEDTAVYYCAAQYYPYSYAHRYGYCGQGTQVTVSS”: the “polyreactivity (PSR sort gate)” value is given as “high polyreactivity”.

In the case of “QVQLVESGGGLVQAGGSLRLSCAASGRIFAYNAMGWYRPAPGKERELVADISSGGNTYYADSVKGRFTISRDNAKNTVYLQMNSLKPEDTAVYYCAADIAWYTHYHRIFDYWGQGTQVTVSS”, the “polyreactivity (PSR sort gate)” value is given as “low polyreactivity”.

On to “QVQLVESGGGLVQAGGSLRLSCAASGRIFAYNAMGWYRQAPGKERELVAAIDWSGGRTYYADSVKGRFTISRDNEKNTVYLQMNSLKPEDTAVYYCATDVNSYGYYYWGQGTQVTVSS”, for which the “polyreactivity (PSR sort gate)” value is on record as “high polyreactivity”.

With “QVQLVESGGGLVQAGGSLRLSCAASGRIFAYNAMGWYRQAPGKEREVVAAIDSGGDTNYADSVKGRFTISRDNAKNTVYLQMNSLKPEDTAVYYCNVTYSGQATFAYTDSARYDYWGQGTQVTVSS”, the “polyreactivity (PSR sort gate)” value is “low polyreactivity”.

As to “QVQLVESGGGLVQAGGSLRLSCAASGRIFAYYAMGWNRQAPGKERELVAAISRSGVSTYYADSVKGRFTISRDNAKNTVYLQRNSLKPEDTAVYYCAARWRSGFTSGDYWGQGTLVTVSS”, the “polyreactivity (PSR sort gate)” value is reported as “low polyreactivity”.

In the case of “QVQLVESGGGLVQAGGSLRLSCAASGRIFAYYAMGWYRQAPGKERELGATITGGGDRTYYADSVKGRFTISRDNAKNTVYLQMNSLKPEDTAVYYCNARVWYYSPYYYWGQRTQVTVSS”, the “polyreactivity (PSR sort gate)” value is on record as “low polyreactivity”.

Regarding “QVQLVESGGGLVQAGGSLRLSCAASGRIFAYYAMGWYRQAPGKERELVAAINTSGATTNYADSVKGRFTISRDKAKNTVYLQMNSLKPEDTAVYYCAAWKGVYTYNYWGQGTQVTVSS”, the “polyreactivity (PSR sort gate)” value is “high polyreactivity”.

Take “QVQLVESGGGLVQAGGSLRLSCAASGRIFAYYAMGWYRQAPGKERELVAAISSGGTTNYADSVKGRFTISRDNAKNTVYLQMNSLKPEDTAVYYCNADGWRRSRQYYYWGQGTQVTVSS”: the “polyreactivity (PSR sort gate)” value was “low polyreactivity”.

For the sequence “QVQLVESGGGLVQAGGSLRLSCAASGRIFAYYAMGWYRQAPGKERELVAAITSRGGRTYYADSVKGRFTISRDNAKNTVYLQMNSLKPEDTAVYYCAAKGRPDGKYDYWGQGTQVTVSS”, the “polyreactivity (PSR sort gate)” value is listed as “high polyreactivity”.

Take “QVQLVESGGGLVQAGGSLRLSCAASGRIFAYYAMGWYRQAPGTERELVAAISRSGVSTYYADSVKGRFTISRDNAKNTVYLQMNSLKPEDTAVYYCAAERYWTYYSGFVYGGDNYWGQGTQVTVSS”: the “polyreactivity (PSR sort gate)” value was “low polyreactivity”.

With “QVQLVESGGGLVQAGGSLRLSCAASGRIFAYYTMGWYRQAPGKERELVAAITKRGGSTYYADSVKGRFTISRDNAKNTVYLQMNSLKPEDTAVYYCAADPHRYRYRSPHDYWGQGTQVTVSS”, the “polyreactivity (PSR sort gate)” value is “high polyreactivity”.

Consider “QVQLVESGGGLVQAGGSLRLSCAASGRIFAYYTMGWYRQAPGKERELVAAITSRGGSTYYADSVKGRFTISRDNAKKTVYLQMNSLKPEDTAVYYCAALRPSNVDYWGQGTQVTVSS”, for which the “polyreactivity (PSR sort gate)” value is given as “high polyreactivity”.

For the sequence “QVQLVESGGGLVQAGGSLRLSCAASGRIFAYYVMGWYRQAPGKERELVASISSGGGTYYADSVKGRFTISRDNAKNTVYLQMNSLKPEDTAVYYCAARWRRYVYPDGHLFWYDYWGQGTQVTVSS”, the “polyreactivity (PSR sort gate)” value was “high polyreactivity”.

For the sequence “QVQLVESGGGLVQAGGSLRLSCAASGRIFDANAMGWYRQAPGKERELVAAITVSGGSTYYADSVKGRFTISRDNAKNTVYLEMNSLKPEDTAVYYCAKSLVPWWYKVDYDYWGQGTQVTVSS”, the “polyreactivity (PSR sort gate)” value was “low polyreactivity”.

“QVQLVESGGGLVQAGGSLRLSCAASGRIFDANVMGGYRQAPGKERELVAAISSGGRTKYADSVKGRFTISRDNAKNTVYLQMNSLKPEDTAVYYCAKKHSPLYDYWGQGTQVTVSS”: the “polyreactivity (PSR sort gate)” value was “low polyreactivity”.

Consider “QVQLVESGGGLVQAGGSLRLSCAASGRIFDDNAMGWYRQAPGKERELVASITVSTGSTYYADSVKGRFTISRDNAKNTVYLQMNSLKPEDTAVSYCAAPYITPYGTYVFSSDYWGQGTQVTVSS”, for which the “polyreactivity (PSR sort gate)” value was “low polyreactivity”.

Regarding “QVQLVESGGGLVQAGGSLRLSCAASGRIFDFYAMGWYSQAPGKERELVAAIASSVGNTYYADSVTGRFTISRDNAKNTVSLQMISLKPEDTAVYYCADYSYVRSSYEVEYDYWGQGTQVTVSS”, the “polyreactivity (PSR sort gate)” value is recorded as “low polyreactivity”.

Take “QVQLVESGGGLVQAGGSLRLSCAASGRIFDGNAMGWYRQAPWKERELVAAINRSGGRTYYADSVKGRFTISRDNAKNTVYLQMNSLKPEDTAVYYCATPYAGGTPADPGYDYWGQGTQVTVSS”: the “polyreactivity (PSR sort gate)” value was “high polyreactivity”.

Consider “QVQLVESGGGLVQAGGSLRLSCAASGRIFDGYAMGWYRQAPGKERELVAAINRSGSSTYYADSVKGRFTISRDNAKNTVYLQMNSLKPEDTAVYYCNARSGNRYGPRYDYWGQGTQVTVSS”, for which the “polyreactivity (PSR sort gate)” value is “high polyreactivity”.

Take “QVQLVESGGGLVQAGGSLRLSCAASGRIFDINAMGWYRQAPGKESELVAAISRGGSTYYADSVKGRFTISRDNAKHTVDLQMNSLKPQDTAVYYCNKYRYRGSTVFDGYDYWGQGTQVTVSS”: the “polyreactivity (PSR sort gate)” value is listed as “high polyreactivity”.

On to “QVQLVESGGGLVQAGGSLRLSCAASGRIFDIYAMGWYRQAPGKERELVAAITRGGSTYADSVKGRFTISRDNAKNTVYLQMNSLKPEDTAVYYCAARPRLPRQIGGDGHLDDYWGQGTQVTVSS”, for which the “polyreactivity (PSR sort gate)” value is recorded as “high polyreactivity”.

In the case of “QVQLVESGGGLVQAGGSLRLSCAASGRIFDIYAMGWYRQAPGKERELVAAITSGGSTYYADSVKGRFTNSRDNAKNTVYFQMNILKPEYTAVYYCAADSVLLKDTGYDYWGKGTQVTVSS”, the “polyreactivity (PSR sort gate)” value was “low polyreactivity”.

Source of the values: the nanobody polyreactivity screen of Harvey et al. (2022).
